Reference: the supplement of paper PMC10567573

B1: PTPRD (parent)
chain: PVVSMDLDPQPITDEEEGLIWVVG
B2: C9orf9 (parent)
chain: TKHKCRQLTKASLKPRGCSKPPWR

Variants of: B1
Assay: protein stability index of a GFP-peptide fusion (GPS, HEK-293T) (PSI 1-6); higher = more stable
Conditions: c terminus: a fixed tail appended
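Further: lentivirally expressed fusions sorted by FACS into six bins by GFP to DsRed ratio, PSI derived from sequencing read proportions per bin multiplied by bin number.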

Protein stability index, by site and new letter:
I20: H 4.32; Q 4.95; E 5.35; K 4.64; V 4.87; D 4.8; S 4.64; N 4.31; L 2.99; P 5.16; G 4.92
V22: F 2.54; Y 5.12; K 4.57; W 3.79; Q 4.63; S 4.7; H 4.85; E 5.47; D 5.28; R 3.89; L 3.94; G 4.92; N 4.37; C 3.9; T 4.26
G24: I 1.54; Y 3.09; E 3.77; C 1.85; T 3.21; V 1.7; N 4.15; W 1.41; S 3.36; F 1.34; M 2.87; D 4.45; K 4.06; L 1.51; Q 3.55; H 3.87
G18: Y 2.27
L19: W 3.37; T 4.91; F 3.65; E 4.54; Q 3.66; V 3.56; A 4.6; N 4.57; S 4.21
V23: A 4.67; R 5.03; L 3.06; S 5.01; Y 4.4; N 4.45; D 5.36; P 4.97; T 4.93; H 4.93; M 4.55; C 3.9; G 5.27
W21: H 5.47; L 3.33; V 4.27; D 5.06; I 3.62; Y 4.1; Q 5.18; T 4.69; A 6; F 4.08; S 5.43; C 4.69

Variants of: B2
Assay: as above
Conditions: c terminus: a fixed tail appended

Protein stability index, by site and new letter:
H3: C 1.44; S 3.02; D 3.12; E 2.77; K 3.09; F 2.27; Y 3.08; T 2.83; P 3.03; R 3.11; W 2.42
K4: M 2.15; F 1.82; C 1.91; Q 2.88; S 2.9; P 2.21; R 2.45; I 1.99; T 2.67; Y 1.95; L 1.72; G 2.83; A 2.94; V 2.25; N 2.78; H 2.66
R6: H 3.25; N 2.78; I 1.86; Y 3.72; V 2.84; D 3.03; T 2.4; S 2.59; P 1.91; Q 3.1; L 2.56; M 2.19; K 2.76; W 2.46; E 3.17; C 2.6; G 3.22
T1: D 3.22; R 3.56; A 3.08; Q 2.46; Y 2.09; G 3.17; C 2.45; K 2.62; I 2.59; S 2.96; E 2.52; P 3.06; M 2.64; N 3.18; F 3.6; W 1.77; L 2.44
C5: H 2.44; N 2.15; V 2.88; L 2.2; G 2.21; Q 3.33; E 3.12; D 3.56; A 3.24; R 3.76; S 2.87; K 3.65; Y 2.88; M 1.84; F 2.4; W 2.17; T 2.24
K2: T 2.27; I 1.64; Y 2.1; A 1.36; G 3.88; P 4.64; S 4.18; M 2.16; C 2.68; D 3.81; W 2.57; N 2.78
